Publication PMC9338999
pKd: −log10 of the molar value.

Key:
WT-EGFR-ECD-Fc (human) = WT-EGFR-ECD-Fc (human) (UniProt P00533); experiment: ELISA
[1] = biological target: S492R-EGFR-ECD-Fc (human) (UniProt P00533); experiment: ELISA
[2] = biological target: full-length human EGFR S492R on NIH3T3 cells (human) (UniProt P00533); experiment: FACS
[3] = biological target: full-length human wild-type EGFR on NIH3T3 cells (human) (UniProt P00533); experiment: FACS

Substance: Panitumumab
- pKd (WT-EGFR-ECD-Fc (human)): 10.68
- pKd [1]: 10.57
- pKd [2]: 8.63
- pKd [3]: 8.63
